Measurements as given in patent publication US7939292B2, “Modified heparinase III and methods of sequencing therewith” (Massachusetts Institute of Technology, priority 2000, dated 2011).

Legend:
[1] = system: B16BL6 melanoma cells; test: Lung metastasis of heparinase treated B16BL6 cells after tail vein injection; assay type: in vivo, mice; details: cells treated 30 min at 37° C. before tail vein injection; 13 days
Procedure: We next investigated the ability of heparinase treated B16BL6 melanoma cells to metastasize to the lungs. B16BL6 cells in log growth phase were briefly trypsinized and resuspended in PBS to a final concentration of 1×10^6 per ml. Prior to injection, cells were treated with either PBS, hep I […] or hep III […] for 30 min. at 37° C. 0.2 ml cell suspensions (2×10^5 cells) were injected slowly via tail vein. Mice were sacrificed 13 days later and lungs were harvested, rinsed with tap water. The number of nodules on lung surface were counted with the assistance of a dissection microscope. * indicates p<0.05 (Mann-Whitney test).

[2] = system: B16BL6 melanoma; test: Primary tumor growth of B16BL6 melanoma in mice treated with heparinases; assay type: in vivo; details: 0.5 mg/kg/day
Excerpt: Heparinases I and III, which have very distinct substrate specificities for cleaving HLGAGs, were employed as tools to investigate the role of HLGAGs in tumor growth and metastasis. While heparinase I cleaves at the highly sulfated regions of HLGAGs, heparinase III only cleaves at the under-sulfated regions of the polysaccharide chain, thereby rendering these enzymes powerful tools to investigate in vivo and in vitro roles of HLGAGs, in development, morphogenesis, angiogenesis etc. To examine the roles of HLGAGs in tumor growth and metastasis, we used B16BL6 melanoma as a model system and treated tumor-bearing mice with either heparinases I or III to investigate both primary tumor growth as well as tumor metastasis. Consistent with the current paradigm, heparinase I accelerated tumor growth (FIG. 8). At a dosage of 0.5 mg/kg/day of heparinase I, tumor growth was increased by about 39%. […] Inhibition of primary tumor growth by heparinase III was first observed at 2 mg/kg per day. Tumor growth was inhibited by 73% at 12 mg/kg per day, the maximum dosage tested in the study (FIG. 8).
Mice, 15 days after tumor implantation with B16BL6 melanoma, were examined. 4×10^5 log growth phase B16BL6 melanoma cells in 0.1 ml PBS were injected to the flank of C57BL/6 mice on day 1. Daily injection of 0.1 ml of PBS, heat inactivated hep III or active heparinase III (2 mg/ml, recombinantly expressed, purified, buffer exchanged with PBS, and concentrated) started at the day 4 and continued throughout the experiment. At day 7, osmotic pumps (100 μl capacity delivering at 0.5 μl per hour) containing PBS or 3 mg/ml hep III were implanted subcutaneously at a place remote from the tumor site. Mice were sacrificed at day 15.
FIG. 8 depicts the tumor volume of the tumors isolated from the mice described above. Tumor volume was measured daily after day 7 with a caliper and calculated with the formula [volume=0.52×(width)^2×(length)].

[3] = system: B16BL6 cells; test: Growth in mice of B16BL6 cells after heparinase removal of the HLGAG coat; assay type: in vivo; details: HLGAG coat removed
Excerpt: There are two possible mechanisms by which heparinase may be acting on tumor cells. For instance, heparinase III treatment of cells may result in cells losing their unique surface HLGAG coat and this directly or indirectly may impinge on their ability to grow or metastasize. On the other hand heparinase III treatment of cells may also result in the generation of distinct HLGAG fragments, and these fragments could then directly or indirectly modulate tumor cell function. It was thought that heparinase III may function though either one of these mechanisms or through some combination of these mechanisms. To investigate the mechanisms of action further, we treated B16BL6 cells with either heparinases I or III, to remove the HLGAG coat on the tumor cell surface.
In further support of this conclusion ex vivo digestion of the HLGAG coat present on tumor cells with either heparinase, followed by centrifugation and resuspension in PBS to remove the enzyme and HLGAG fragments released from the cell surface, prior to in vivo injection results in the cells being functionally identical to controls. Thus the released tumor cell HLGAG fragments appear to play the key role in modulating tumor growth and metastasis.

[4] = system: Akt; test: Akt activation in B16BL6 tumor; set-up: species or system mice; details: mouse, in vivo
Procedure: f. Effect of heparinase treatment on Akt activation. The primary tumor was treated and processed as described above. Akt antibody and phospho-Akt antibody from New England Biolabs were used to probe the immunoblot.

[5] = system: FGFR1; test: FGFR1 phosphorylation in B16BL6 tumor samples; set-up: species or system mice; details: mouse, in vivo
Procedure: c. Effect of treatment of tumor with hep I and hep III in FGFR1 activation compared to PBS. Level of phosphorylated FGFR1 in tumor samples was assessed by standard immunoprecipitation followed by Westernblotting with phosphotyrosine specific antibody. Primary B16BL6 tumors were grown and treated as described earlier and at day 15 the tumor was harvested in cold modified RIPA buffer containing enzyme inhibitors and homogenized. The homogenates were past through 25-gauge needle 3 times and centrifuged. The supernatant was adjusted for protein concentration using the Bio-Rad protein assay kit (Bio-Rad). FGFR1 was immunoprecipitated with poly-clonal anti-FGFR1 antibody (Santa Cruz Biotechnology, Inc., CA). Samples were then pelleted, washed, and eluted from the beads by addition of sample buffer and boiled for 3 minutes (Kapila, Y. L., Wang, S. & Johnson, P. W. Mutations in the heparin binding domain of fibronectin in cooperation with the V region induce decreases in pp125(FAK) levels plus proteoglycan-mediated apoptosis via caspases. J Biol Chem 274, 30906-13 (1999).). After electrophoresis, the gel was transferred to nitrocellulose membrane by standard methods. The immunoblot was probed with phosphotyrosine specific antibody conjugated to HRP (RC20; Transduction Laboratories, Lexington, Ky.) and developed with SuperSignal West Pico Chemiluminescent substrate. […]

[6] = system: B16BL6 melanoma; test: Histological examination of tumor samples (apoptosis, TdT labeling); assay type: in vivo, mice
Procedure: Immunohistochemistry was done as described (Parangi et al., 1996; O'Reilly et al., 1994) with minor modifications. Briefly, tumor tissues were fixed in either 4% (vol/vol) formaldehyde overnight for von Willebrand factor (vWF) staining and terminal deoxynucleotide transferase (TdT) labeling or in Glyo-Fixx solution overnight for Ki-67 nuclear antigen staining. Tissues were embedded in paraffin according to standard histological procedures. For vWF staining, sections (5 μm thick) were incubated with 0.2 N HCl for 10 min. autoclaved in a Coplin jar immersed with Target retrieval Solution (Dako) for 15 min. and permeabilized with 2 μg/ml proteinase K at 37° C. for 15 min. Sections were incubated with rabbit anti-human vWF antibody coupled with horseradish peroxidase (HRP) (Dako). Positive staining was detected by substrate reaction with diaminobenzidine. Sections were counterstained with Gill's hematoxylin and mounted in Permount (Fisher). […] Capillary density was determined by counting the number of vWF-positive capillaries per high power field (HPF, ×200). The proliferative and apoptotic indices of tumor cells within areas of viable tumor were estimated from the percentage of cells scored under a light microscope at 400-fold magnification. A minimum of 2000 cells were counted in each animal. # indicates standard error.

[7] = system: Erk-1, 2; test: Erk-1, 2 activation in FGF2 stimulated B16BL6 cells (immunoblot); assay type: cell-based; details: enzyme 200 nM 30 min before 50 ng/ml FGF2
Procedure: a. Methods: B16BL6 cells in 10 cm culture dishes were serum starved for 48 hours before stimulation with 50 ng/ml FGF2. Cells were stimulated for 20 minutes before whole cell lysates were prepared with 1 ml modified RIPA buffer containing various enzyme inhibitors (50 mM Tris-HCl, pH 7.4, 1% NP-40, 0.25% Na-deoxycholate, 150 mM NaCl, 1 mM EDTA, 1 mM PMSF, 1 μg/ml aprotinin, leupeptin, and pepstatin, 1 mM activated Na3VO4, 1 mM NaF). Protein concentration in the lysate was determined using the Bio-Rad protein assay kit (BioRad) and adjusted accordingly for electrophoresis analysis. For the heparinase treated groups, cells were treated with either hep I or hep III (200 nM) for 30 min at 37° C. prior to addition of FGF2. The immunoblot was probed with anti-Erk-1, 2 or anti-phospho-Erk-1, 2 antibody (New England Biolabs; MA) and detected by anti-rabbit IgG conjugated to HRP using SuperSignal West Pico Chemiluminescent substrate (Pierce, Ill.).

[8] = SAX-HPLC analysis of exhaustive heparan sulfate digests; assay type: biochemical; details: SAX-HPLC, overnight 37° C.
Procedure: Exhaustive digests of 3 mg/ml heparan sulfate in 50 mM sodium phosphate buffer, pH 7.6 were performed overnight at 37° C. for each of the mutants (20 μg protein). The reactions were loaded onto a Spherisorb S5 SAX column (Waters) and eluted using a linear gradient of 0.2-1.0 M NaCl, pH 3.5. The products were monitored at 232 nm and each of the major peaks was collected. To determine their composition, the collected fractions were analyzed by capillary electrophoresis and identified by comigration with known standards.
As a control, the r-heparinase III construct without its putative signal sequence was expressed. The concentration and purity of all recombinant enzyme preparations were determined using SDS-PAGE. The recombinantly expressed heparinase III was also compared to the heparinase III isolated from F. heparinum to ensure that they were the same molecular weight. Heparinase III (20 μg/mL) was incubated with a 4 mg/mL of heparan sulfate overnight at 37° C. The reaction was loaded onto a SAX column and the saccharide products were eluted using a gradient of 0.2-1.0 M NaCl, pH 3.5 over 30 min. and monitored at 232 nm. (A) Heparan sulfate digested with heparinase III from F. heparinum. (B) Heparan sulfate digested with recombinant heparinase III. (C) Heparan sulfate digested with the H295A mutant enzyme. (D) Heparan sulfate digested with the H510A mutant enzyme. (E) Heparan sulfate digested with the H105A mutant enzyme.

[9] = Heparinase III kinetic assay of r-heparinase III and histidine mutants; assay type: biochemical; details: heparan sulfate

Molecule | ability of treated B16BL6 cells to metastasize to the lungs compared to PBS treated cells [1] | increase of tumor growth [2] | ability of treated B16BL6 cells to grow in mice compared to untreated cells [3] | activation of Akt in tumor [4] | phosphorylation of FGFR1 in primary tumor [5] | apoptosis in tumor samples, enzyme treated tumors [6] | Erk-1, 2 activation upon FGF2 stimulation [7] | catalytic activity in overnight heparan sulfate digests [8] | kcat [9] [s⁻¹] | Km ([9]; calculated assuming a molecular weight of 15 kDa) [µM]
heparinase I: HLGAG degrading enzyme that cleaves at the highly sulfated regions of HLGAGs (protein, UniProt Q05819 22-384, looked up) Heparin lyase I: QQKKSGNIPYRVNVQADSAKQKAIIDNKWVAVGINKPYALQYDDKLRFNGKPSYRFELKAEDNSLEGYAAGETKGRTELSYSYATTNDFKKFPPSVYQNAQKLKTVYHYGKGICEQGSSRSYTFSVYIPSSFPDNATTIFAQWHGAPSRTLVATPEGEIKTLSIEEFLALYDRMIFKKNIAHDKVEKKDKDGKITYVAGKPNGWKVEQGGYPTLAFGFSKGYFYIKANSDRQWLTDKADRNNANPENSEVMKPYSSEYKTSTIAYKMPFAQFPKDCWITFDVAIDWTKYGKEANTILKPGKLDVMMTYTKNKKPQKAHIVNQQEILIGRNDDDGYYFKFGIYRVGNSTVPVTYNLSGYSETAR | marginally effected, if any | about 39% | no effect | no change in activation of Akt | opposite effect on the phosphorylation of FGFR1 | reduced apoptosis | increased Erk-1, 2 activation | – | – | –
H139A: recombinant heparinase III with histidine 139 mutated to alanine (protein) MTTKIFKRIIVFAVIALSSGNILAQSSSITRKDFDHINLEYSGLEKVNKAVAAGNYDDAAKALLAYYREKSKAREPDFSNAEKPADIRQPIDKVTREMADKALVHQFQPHKGYGYFDYGKDINWQMWPVKDNEVRWQLARVKWWQAMALVYHATGDEKYAREWVYQYSDWARKNPLGLSQDNDKFVWRPLEVSDRVQSLPPTFSLFVNSPAFTPAFLMEFLNSYHQQADYLSTHYAEQGNHRLFEAQRNLFAGVSFPEFKDSPRWRQTGISVLNTEIKKQVYADGMQFELSPIYHVAAIDIFLKAYGSAKRVNLEKEFPQSYVQTVENMIMALISISLPDYNTPMFGDSWITDKNFRMAQFASWARVFPANQAIKYFATDGKQGKAPNFLSKALSNAGFYTFRSGWDKNATVMVLKASPPGEFHAQPDNGTFELFIKGRNFTPDAGVFVYSGDEAIMKLRNWYRQTRIHSTLTLDNQNMVITKARQNKWETGNNLDVLTYTNPSYPNLDHQRSVLFINKKYFLVIDRAIGEATGNLGVHWQLKEDSNPVFDKTKNRVYTTYRDGNNLMIQSLNADRTSLNEEEGKVSYVYNKELKRPAFVFEKPKKNAGTQNFVSIVYPYDGQKAPEISIRENKGNDFEKGKLNLTLTINGKQQLVLVP | – | – | – | – | – | – | – | retain their catalytic activity | 68 | 191
